Laboratory results as given in patent US20230012273A1 (Boehringer Ingelheim, published 2023).
Values belong to the binder of their own block, whether it stands above or below them.

Legend:
[1] = target: T1, full-length human SIRPγ EN→DD on Expi-CHO cells (human, UniProt Q9P1W8 29-387); test: flow cytometry, Expi-CHO cells expressing full-length human SIRPγ EN→DD
T1 construct: the entry already carries the change (PENV to PDDV)
T1 chain: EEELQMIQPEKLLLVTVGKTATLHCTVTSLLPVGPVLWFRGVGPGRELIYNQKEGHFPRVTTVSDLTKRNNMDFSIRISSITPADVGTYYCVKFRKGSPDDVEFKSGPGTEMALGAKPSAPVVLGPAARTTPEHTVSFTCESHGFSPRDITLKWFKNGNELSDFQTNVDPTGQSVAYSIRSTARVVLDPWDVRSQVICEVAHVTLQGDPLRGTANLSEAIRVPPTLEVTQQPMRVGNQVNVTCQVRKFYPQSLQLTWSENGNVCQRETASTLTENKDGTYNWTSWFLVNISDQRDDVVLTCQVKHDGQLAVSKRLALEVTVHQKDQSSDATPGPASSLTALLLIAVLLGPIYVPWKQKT
Method: (§1) Expi-CHO parental cells are transduced with lentiviruses containing either full-length wild-type human SIRPγ ([…]) or full-length human SIRPγ with amino acid point mutations (Table 64) and sorted to achieve matching expression levels. These cells are blocked with donkey IgG and incubated on ice with increasing concentrations of antibodies for 60 minutes, washed and stained with AF647-conjugated donkey F(ab′)₂ anti-human IgG antibodies. Stained cells are washed, fixed, and analyzed by flow cytometry. Median fluorescent intensity is determined and used as a measure of antibody binding.

[2] = target: T2, full-length human SIRPβ1 (NP_006056.2) on cells (human, UniProt O00241 30-398); test: flow cytometry, U937 SIRPα-KO cells expressing full-length human SIRPβ1
T2 construct: also called β1 WT
Method: (§2) Antibody binding to cells expressing full-length human SIRPβ1 (NP_006056.2) and SIRPβL (NP_001129316.1) is evaluated by flow cytometry. SIRPβ1- or SIRPβL-expressing U937^{SIRPα KO} cells are blocked with donkey IgG and incubated on ice with increasing concentrations of antibodies for 60 minutes, washed and stained with AF647-conjugated donkey F(ab′)₂ anti-human IgG secondary reagent. Cells are washed, fixed, and analyzed by flow cytometry. Median fluorescent intensity is determined and used as a measure of antibody binding.

[3] = target: T3, full-length human SIRPβL (NP_001129316.1) on cells (human, UniProt Q5TFQ8 30-398); test: flow cytometry, U937 SIRPα-KO cells expressing full-length human SIRPβL
T3 construct: one molecule for U937 SIRPα-KO transfectants (NP_001129316.1) and Expi-CHO transfectants (Q5TFQ8); also called SIRPβ1v3; βL WT
Method: as §2
Target sequence in this assay (Q5TFQ8 30-398): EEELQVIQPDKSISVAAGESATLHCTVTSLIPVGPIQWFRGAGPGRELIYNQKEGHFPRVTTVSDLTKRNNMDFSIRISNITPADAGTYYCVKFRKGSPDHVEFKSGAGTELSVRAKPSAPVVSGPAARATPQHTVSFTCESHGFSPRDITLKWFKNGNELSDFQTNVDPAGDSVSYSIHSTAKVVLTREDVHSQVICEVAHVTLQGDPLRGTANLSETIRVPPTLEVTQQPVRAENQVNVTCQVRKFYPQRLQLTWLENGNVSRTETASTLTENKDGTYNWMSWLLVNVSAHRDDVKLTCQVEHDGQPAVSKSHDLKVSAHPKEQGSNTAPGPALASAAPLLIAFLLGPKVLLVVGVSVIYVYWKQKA

[4] = target: T4, human SIRPβ1 extracellular domain + His-tag (NP_006056.2) (human, UniProt O00241 30-371); test: SPR, Ab captured, ECD-His analyte
T4 construct: also called hSIRPβ1; HuSIRPβ1
How it was run: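 In HBS-EP+ (1×), captured antibodies are exposed to a twofold concentration series of SIRP extracellular domain carrying a His tag, using 300 s contact at 30 μl/min and a 600 s dissociation window.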

[5] = target: T5, full-length human SIRPβL (NP_001129316.1) on cells (human, UniProt Q5TFQ8 30-398); test: flow cytometry, U937 SIRPα KO cells
T5 construct: on U937 SIRPα KO cells and Expi-CHO cells; also called βL WT; SIRPβ1v3
How it was run: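 Binding read as median fluorescence intensity after AF647 anti-human IgG staining and fixation. Antibodies were titrated onto donkey-IgG-blocked U937^{SIRPα KO} transfectants bearing SIRPβ1 or SIRPβL for 60 minutes on ice.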
Target sequence in this assay (Q5TFQ8 30-398): as above

[6] = target: full-length human SIRPβ1 D→H on Expi-CHO cells (human, UniProt O00241 30-398); test: flow cytometry, Expi-CHO cells
Method: These cells are blocked with donkey IgG and incubated on ice with increasing concentrations of antibodies for 60 minutes, washed and stained with AF647-conjugated donkey F(ab′)₂ anti-human IgG antibodies. Stained cells are washed, fixed, and analyzed by flow cytometry. Median fluorescent intensity is determined and used as a measure of antibody binding.

[7] = target: T6, full-length human SIRPγ (NP_061026.2) on cells (human, UniProt Q9P1W8 29-387); test: flow cytometry, primary human CD3+ T cells
T6 construct: on CHO and Expi-CHO cells; endogenous on primary human CD3+ T cells; also called γ WT
How it was run: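 Binding was read as median fluorescence intensity on the CD3+ gate after titrated antibody was applied to donkey-IgG-blocked human PBMCs. Incubation was 60 min on ice, followed by staining with an AF647-labelled anti-human IgG F(ab′)₂ secondary and fixation before flow analysis.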
T6 sequence (Q9P1W8 29-387): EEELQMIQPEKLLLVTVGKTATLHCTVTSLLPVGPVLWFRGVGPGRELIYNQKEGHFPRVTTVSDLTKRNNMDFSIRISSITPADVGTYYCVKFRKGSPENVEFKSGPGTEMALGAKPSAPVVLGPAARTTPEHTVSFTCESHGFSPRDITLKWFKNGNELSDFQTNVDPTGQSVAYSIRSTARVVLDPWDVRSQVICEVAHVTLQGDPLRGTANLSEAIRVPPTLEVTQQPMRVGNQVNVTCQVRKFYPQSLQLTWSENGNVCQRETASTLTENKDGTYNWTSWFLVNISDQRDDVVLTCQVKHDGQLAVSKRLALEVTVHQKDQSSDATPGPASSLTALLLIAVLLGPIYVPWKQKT

[8] = target: T3, full-length human SIRPβL …; test: flow cytometry, Expi-CHO cells expressing full-length wild-type human SIRPβL
Method: Expi-CHO parental cells are transduced with lentiviruses containing either full-length wild-type human SIRPβL (Q5TFQ8) or full-length human SIRPβL with a single amino acid point mutation (Table 62) and sorted to achieve matching expression levels. These cells are blocked with donkey IgG and incubated on ice with increasing concentrations of antibodies for 60 minutes, washed and stained with AF647-conjugated donkey F(ab′)₂ anti-human IgG antibodies. Stained cells are washed, fixed, and analyzed by flow cytometry. Median fluorescent intensity is determined and used as a measure of antibody binding.
A single amino acid substitution (H→D) introduced within the loop region maintained, strengthened, or facilitated antibody binding to these cells (FIG. 34B, Table 63).
T3 sequence (Q5TFQ8 30-398): as the sequence (Q5TFQ8 30-398) above

[9] = target: T7, full-length human SIRPγ (NP_061026.2) on cells (human, UniProt Q9P1W8 29-387); test: flow cytometry, Expi-CHO cells
T7 construct: also called CHO-hSIRPγ; γ WT
Method: as §1
T7 sequence (Q9P1W8 29-387): as the sequence (Q9P1W8 29-387) above

[10] = target: T8, full-length human SIRPγ E→D on Expi-CHO cells (human, UniProt Q9P1W8 29-387); test: flow cytometry, Expi-CHO cells
T8 construct: the entry already carries the change (PENV to PDNV)
Method: as §1

Sequence of full-length human SIRPβ1 D→H on Expi-CHO cells (O00241 30-398 D130H): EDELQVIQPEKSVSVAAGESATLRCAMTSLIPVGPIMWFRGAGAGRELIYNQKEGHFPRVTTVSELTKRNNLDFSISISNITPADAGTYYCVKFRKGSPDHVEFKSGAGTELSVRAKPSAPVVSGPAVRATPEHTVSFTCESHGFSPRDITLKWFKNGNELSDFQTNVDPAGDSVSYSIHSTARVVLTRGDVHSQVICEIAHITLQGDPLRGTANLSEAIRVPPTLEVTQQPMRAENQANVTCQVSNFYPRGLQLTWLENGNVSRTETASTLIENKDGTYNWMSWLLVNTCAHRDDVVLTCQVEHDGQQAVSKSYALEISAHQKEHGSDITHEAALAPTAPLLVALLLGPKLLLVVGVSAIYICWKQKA
T2 sequence (O00241 30-398): as the sequence (O00241 30-398 D130H) above, with H101D counted along it
T8 sequence (Q9P1W8 29-387 E128D): as the sequence (Q9P1W8 29-387) above, with E100D counted along it
T4 sequence (O00241 other isoform, or with tags, fused parts or gaps): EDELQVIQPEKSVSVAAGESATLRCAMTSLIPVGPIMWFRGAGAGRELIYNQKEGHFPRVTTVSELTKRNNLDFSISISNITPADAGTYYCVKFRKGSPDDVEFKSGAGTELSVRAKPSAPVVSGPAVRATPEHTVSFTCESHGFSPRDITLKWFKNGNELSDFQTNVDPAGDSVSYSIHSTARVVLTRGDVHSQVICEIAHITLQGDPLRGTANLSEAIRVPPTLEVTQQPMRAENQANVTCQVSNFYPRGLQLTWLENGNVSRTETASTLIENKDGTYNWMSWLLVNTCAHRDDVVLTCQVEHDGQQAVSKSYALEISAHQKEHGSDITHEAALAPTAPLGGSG

B1: Antibody E (antibody, human IgG1, kappa, L234A L235A)
heavy: not shown
light: DIVMTQSPLSLPVTPGEPASISCKSSQSLLYSNGYNYLDWYLQRPGQSPQLLIYLGSNRASGVPDRFSGSGSGTDFTLKISRVEAEDVGVFYCMQALQTPLTFGGGTKVEIKRTVAAPSVFIFPPSDEQLKSGTASVVCLLNNFYPREAKVQWKVDNALQSGNSQESVTEQDSKDSTYSLSSTLTLSKADYEKHKVYACEVTHQGLSSPVTKSFNRGEC
binding result [1]: no binding (tested: about 67 nM)

B3: Antibody A (antibody, human IgG1, kappa, L234A L235A)
heavy: not shown
light: DIQMTQSPSSLSASVGDRVTITCRASQDINNYLAWFQQKPGKAPKSLIYTASSLHSGVPSKFSGSGSGTDFTLTISSLQPEDFATYYCQQYVSYPYTFGQGTKLEIKRTVAAPSVFIFPPSDEQLKSGTASVVCLLNNFYPREAKVQWKVDNALQSGNSQESVTEQDSKDSTYSLSSTLTLSKADYEKHKVYACEVTHQGLSSPVTKSFNRGEC
binding result [3]: no binding (tested: about 200 nM)

B4: Antibody A (antibody, human IgG1, kappa, L234A L235A)
heavy: not shown
light: DIQMTQSPSSLSASVGDRVTITCRASQDINNYLAWFQQKPGKAPKSLIYTASSLHSGVPSKFSGSGSGTDFTLTISSLQPEDFATYYCQQYVSYPYTFGQGTKLEIKRTVAAPSVFIFPPSDEQLKSGTASVVCLLNNFYPREAKVQWKVDNALQSGNSQESVTEQDSKDSTYSLSSTLTLSKADYEKHKVYACEVTHQGLSSPVTKSFNRGEC
Kd [4]: 78200 pM | binding result [5]: no binding | binding result [6]: no binding

More lines, now with the values ahead:

binding result [1]: no binding (tested: about 67 nM) | binding result [2]: no binding (tested: about 200 nM)
B2: Antibody E22 (antibody, human IgG1, kappa, L234A L235A, V domains shown)
VH: QVQLQESGPGLVKPSETLSLTCTVSGGSIRDYYWSWIRQPPGKGLEWIGFIYYNGRTFYQSSLKSRVTISLDTSKNQFSLKMTSVTAADTAVYYCARVRAYSGIGLDGTDVWGQGTTVTVSS
VL: DIVMTQSPLSLPVTPGEPASISCRSSQSLLYSTGYTYLDWYLQRPGQSPQLLIYGGSSRASGVPDRFSGSGSGTDFTLKISRVEAEDVGVFYCGQALQTPLTFGQGTKVEIKR

binding result [7]: no binding | binding result [5]: no binding | binding result [6]: no binding
B5: Antibody A10 (antibody, human IgG1, kappa, L234A L235A)
heavy: not shown
light: DIQMTQSPSSLSASVGDRVTITCRASQDINNYLAWFQQKPGKAPKSLIYTASSLHSGVPSKFSGSGSGTDFTLTISSLQPEDFATYYCQQYVSYPYTFGQGTKLEIKRTVAAPSVFIFPPSDEQLKSGTASVVCLLNNFYPREAKVQWKVDNALQSGNSQESVTEQDSKDSTYSLSSTLTLSKADYEKHKVYACEVTHQGLSSPVTKSFNRGEC

binding result [8]: no binding (tested: about 67 nM)
B6: Antibody A10 (antibody, human IgG1, kappa, L234A L235A)
heavy: not shown
light: DIQMTQSPSSLSASVGDRVTITCRASQDINNYLAWFQQKPGKAPKSLIYTASSLHSGVPSKFSGSGSGTDFTLTISSLQPEDFATYYCQQYVSYPYTFGQGTKLEIKRTVAAPSVFIFPPSDEQLKSGTASVVCLLNNFYPREAKVQWKVDNALQSGNSQESVTEQDSKDSTYSLSSTLTLSKADYEKHKVYACEVTHQGLSSPVTKSFNRGEC

EC50 [9]: 113 pM | EC50 [10]: 300 pM
B7: Anti-SIRPα antibody KWAR23 (antibody, V domains shown)
VH: EVQLQQSGAELVKPGASVKLSCTASGFNIKDYYIHWVQQRTEQGLEWIGRIDPEDGETKYAPKFQDKATITADTSSNTAYLHLSSLTSEDTAVYYCARWGAYWGQGTLVTVSS
VL: QIVLTQSPAIMSASPGEKVTLTCSASSSVSSSYLYWYQQKPGSSPKLWIYSTSNLASGVPARFSGSGSGTSYSLTISSMEAEDAASYFCHQWSSYPRTFGAGTKLELK
